This data set concerns the molecule itself. Description: AUC.

B1: His6-Dma1(187–end) (domain or fragment, S. pombe, UniProt Q10322 187-267, looked up)
chain: SGPPECCICLMPVLPCQALFVAPCSHSYHYKCIRPTLNESHPYFSCFICRKYHDLEAPVEEGDESLNDLLRNATVKDDASE
The stoichiometry N is the number of molecules, sites or subunits per partner or assembly. On to B1, for which the “stoichiometry N” value was found to be 2.

The values are drawn from publication PMC3406662 (The Journal of Biological Chemistry, 2012).
